This is an account of results in paper PMC6222848, “Spatial Overlap of Claudin- and Phosphatidylinositol Phosphate-Binding Sites on the First PDZ Domain of Zonula Occludens 1 Studied by NMR” (Molecules : A Journal of Synthetic Chemistry and Natural …, 2018).

The labels stand for the following.
B1: GST-tagged mouse ZO-1(PDZ1) (residues 18–110) [mouse] / His6-tagged thioredoxin (Trx) fusion protein of mouse CLD-3 C-terminus (Trx-CLD3, residues 210–219) [mouse] (parent complex)
chain 1: IWEQHTVTLHRAPGFGFGIAISGGRDNPHFQSGETSIVISDVLKGGPAEGQLQENDRVAMVNGVSMDNVEHAFAVQQLRKSGKNAKITIRRKK
chain 2: GTAYDRKDYV

In the assay the parent is B1. Description: SPR; absence of phytic acid (gray bar); parent: 1.2e+03; read off a plot. In general terms: Surface plasmon resonance follows binding to a sensor surface in real time, without labels.
As to chain 1 IWEQHTVTLHRAPGFGFGIAISGGRDNPHFQSGETSIVISDVLKGGPAEGQLQENDRVAMVNGVSMDNVEHAFAVQQLAKSGKNAKITIRRKK, the response is ~40 RU.
Under chain 1 IWEQHTVTLHRAPGFGAGIAISGGRDNPHFQSGETSIVISDVLKGGPAEGQLQENDRVAMVNGVSMDNVEHAFAVQQLRKSGKNAKITIRRKK stands ~15 RU.
Under chain 1 IWEQHTVTLHRAPGFGFGIAISGGRDNPHFQSGETSIVISDVAKGGPAEGQLQENDRVAMVNGVSMDNVEHAFAVQQLRKSGKNAKITIRRKK stands ~28 RU; under chain 1 IWEQHTVTLHRAPGFGFGIAISGGRDNPHFQSGETSIVISAVLKGGPAEGQLQENDRVAMVNGVSMDNVEHAFAVQQLRKSGKNAKITIRRKK, ~110 RU.
Under chain 1 IWEQHTVTLHRAPGFGFGIAISGGRDNPHFQSGETSIVISDVLKGGPAEGQLQENDRVAMVNGVSMDNVEHAFAAQQLRKSGKNAKITIRRKK stands ~22 RU.
